We go through one molecule from article PMC9205196.

This assay deals with Recombinant human FGF2 (fibroblast growth factor-2), biotinylated (human). Description: AlphaScreen or HTRF.

B1: mSDC1: commercial glycosylated, mammalian expressed recombinant mouse SDC1 ectodomain (domain or fragment)
chain: QIVAVNVPPEDQDGSGDDSDNFSGSGTGALPDTLSRQTPSTWKDVWLLTATPTAPEPTSSNTETAFTSVLPAGEKPEEGEPVLHVEAEPGFTARDKEKEVTTRPRETVQLPITQRASTVRVTTAQAAVTSHPHGGMQPGLHETSAPTAPGQPDHQPPRVEGGGTSVIKEVVEDGTANQLPAGEGSGEQDFTFETSGENTAVAAVEPGLRNQPPVDEGATGASQSLLDRKEVLG
modifications: native GAG chains from the mammalian host (CS predominant over HS by the paper's disaccharide analysis)
A word on the EC50: it is the concentration needed to bring the measured effect to its halfway point. Regarding B1, the EC50 was determined as 7 nM.
